# Measured values taken from US20220025021A1 (BETH ISRAEL DEACONESS MEDICAL CENTER, published 2022).
# Positions count from the first letter of the chain named.
# B1: MS-76 (antibody, V domains shown)
# VH: QVQLVQSGPEVRKPGTSVKVSCKAPGYTLKTYDLHWVRSVPGQGLQWMGWISHEGDKKVIVERFKAKVTIDWDRSTNTAYLQLSGLTSGDTAVYYCAKGSKHRLRDYALYDDDGALNWAVDVDYLSNLEFWGQGTAVTVSS
# VL: DFVLTQSPHSLSVTPGESASISCKSSHSLIHGDRNNYLAWYVQKPGRSPQLLIYLASSRASGVPDRFSGSGSDKDFTLKISRVETEDVGTYYCMQGRESPWTFGQGTKVDIKR
# B2: MS-77 (antibody, V domains shown)
# VH: B1 VH with Y27N, L29F
# VL: B1 VL
# B3: MS-78 (antibody, V domains shown)
# VH: B1 VH with Y27N, Q46E
# VL: B1 VL
# B4: MS-79 (antibody, V domains shown)
# VH: B1 VH with Y27N, D71T
# VL: B1 VL
# B5: MS-80 (antibody, V domains shown)
# VH: B1 VH with Y27N, W72R
# VL: B1 VL
# B6: MS-81 (antibody, V domains shown)
# VH: B1 VH with Y27N, Q82E
# VL: B1 VL
# B7: MS-82 (antibody, V domains shown)
# VH: B1 VH with Y27N, T87R
# VL: B1 VL
# B8: MS-83 (antibody, V domains shown)
# VH: B1 VH with Y27N, D113E
# VL: B1 VL
# B9: MS-84 (antibody, V domains shown)
# VH: B1 VH with Y27N, T87R
# VL: B1 VL with H9L, S12P, S18P, R47Q, T85A, T90V
# B10: MS-85 (antibody, V domains shown)
# VH: B1 VH with Y27N
# VL: B1 VL with F2I, D73G, K74T
# B11: MS-86 (antibody)
# VH: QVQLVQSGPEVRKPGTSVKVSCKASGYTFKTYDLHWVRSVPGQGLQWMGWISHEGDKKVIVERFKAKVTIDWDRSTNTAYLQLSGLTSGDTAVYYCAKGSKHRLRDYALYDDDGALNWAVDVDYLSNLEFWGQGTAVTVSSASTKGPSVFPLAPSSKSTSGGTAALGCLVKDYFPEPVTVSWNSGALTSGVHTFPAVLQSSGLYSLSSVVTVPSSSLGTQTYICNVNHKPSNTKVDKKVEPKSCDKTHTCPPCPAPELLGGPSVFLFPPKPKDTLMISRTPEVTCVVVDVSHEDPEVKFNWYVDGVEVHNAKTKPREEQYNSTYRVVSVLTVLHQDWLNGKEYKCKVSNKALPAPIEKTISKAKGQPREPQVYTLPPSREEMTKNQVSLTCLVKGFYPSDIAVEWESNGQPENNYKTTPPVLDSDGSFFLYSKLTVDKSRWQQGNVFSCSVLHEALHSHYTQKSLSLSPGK
# VL: DFVLTQSPHSLSVTPGESASISCKSSHSLIHGDRNNYLAWYVQKPGRSPQLLIYLASSRASGVPDRFSGSGSDKDFTLKISRVETEDVGTYYCMQGRESPWTFGQGTKVDIKRTVAAPSVFIFPPSDEQLKSGTASVVCLLNNFYPREAKVQWKVDNALQSGNSQESVTEQDSKDSTYSLSSTLTLSKADYEKHKVYACEVTHQGLSSPVTKSFNRGEC
# B12: MS-87 (antibody, V domains shown)
# VH: B1 VH with Y27N, D71T, W72R
# VL: B1 VL
# B13: MS-88 (antibody, V domains shown)
# VH: B1 VH with P25S, L29F, D71T, W72R
# VL: B1 VL
# B14: MS-89 (antibody, V domains shown)
# VH: B1 VH with D71T
# VL: B1 VL with H9L
# Target: HIV-1 pseudovirus AC10.0.29 (HIV-1)
# Experiment: cell-based or functional assay
Binder,IC50 (neutralization in TZM.bl cells),IC80 (neutralization in TZM.bl cells)
B1,0.047 µg/mL,0.368 µg/mL
B2,0.036 µg/mL,0.311 µg/mL
B3,0.044 µg/mL,0.225 µg/mL
B4,0.056 µg/mL,0.404 µg/mL
B5,0.054 µg/mL,0.28 µg/mL
B6,0.044 µg/mL,0.324 µg/mL
B7,0.05 µg/mL,0.267 µg/mL
B8,0.038 µg/mL,0.259 µg/mL
B9,0.052 µg/mL,0.257 µg/mL
B10,0.044 µg/mL,0.242 µg/mL
B11,0.107 µg/mL,0.741 µg/mL
B12,0.059 µg/mL,0.328 µg/mL
B13,0.089 µg/mL,0.743 µg/mL
B14,0.067 µg/mL,0.618 µg/mL

# Target: HIV-1 pseudovirus 6952.v1.c20 (HIV-1)
# Experiment: cell-based or functional assay
Binder,IC50 (neutralization in TZM.bl cells),IC80 (neutralization in TZM.bl cells)
B1,0.844 µg/mL,> 25 µg/mL
B2,0.236 µg/mL,6.74 µg/mL
B3,0.342 µg/mL,> 25 µg/mL
B4,13.2 µg/mL,> 25 µg/mL
B5,> 25 µg/mL,> 25 µg/mL
B6,0.228 µg/mL,> 25 µg/mL
B7,0.212 µg/mL,23 µg/mL
B8,0.126 µg/mL,3.09 µg/mL
B9,0.237 µg/mL,18.2 µg/mL
B10,0.393 µg/mL,> 25 µg/mL
B11,2.55 µg/mL,> 25 µg/mL
B12,> 25 µg/mL,> 25 µg/mL
B13,> 25 µg/mL,> 25 µg/mL
B14,> 25 µg/mL,> 25 µg/mL

# Target: HIV-1 pseudovirus X1193_c1 (HIV-1)
# Experiment: cell-based or functional assay
Binder,IC50 (neutralization in TZM.bl cells),IC80 (neutralization in TZM.bl cells)
B1,0.126 µg/mL,0.575 µg/mL
B2,0.109 µg/mL,0.398 µg/mL
B3,0.126 µg/mL,0.452 µg/mL
B4,0.109 µg/mL,0.365 µg/mL
B5,0.137 µg/mL,0.607 µg/mL
B6,0.113 µg/mL,0.512 µg/mL
B7,0.084 µg/mL,0.411 µg/mL
B8,0.061 µg/mL,0.308 µg/mL
B9,0.058 µg/mL,0.285 µg/mL
B10,0.068 µg/mL,0.507 µg/mL
B11,0.167 µg/mL,0.371 µg/mL
B12,0.098 µg/mL,0.277 µg/mL
B13,0.171 µg/mL,0.775 µg/mL
B14,0.144 µg/mL,0.636 µg/mL

# Target: HIV-1 pseudovirus SC05.8C11.2344 (HIV-1)
# Experiment: cell-based or functional assay
Binder,IC50 (neutralization in TZM.bl cells),IC80 (neutralization in TZM.bl cells)
B1,0.587 µg/mL,2.57 µg/mL
B2,0.516 µg/mL,2.41 µg/mL
B3,0.658 µg/mL,2.26 µg/mL
B4,0.593 µg/mL,1.97 µg/mL
B5,0.898 µg/mL,3.15 µg/mL
B6,0.537 µg/mL,2.01 µg/mL
B7,0.502 µg/mL,1.8 µg/mL
B8,0.381 µg/mL,1.88 µg/mL
B9,0.481 µg/mL,1.74 µg/mL
B10,0.425 µg/mL,1.49 µg/mL
B11,1.62 µg/mL,5.39 µg/mL
B12,1.23 µg/mL,5.17 µg/mL
B13,1.54 µg/mL,7.31 µg/mL
B14,0.82 µg/mL,3.75 µg/mL

# Target: HIV-1 pseudovirus 263-8 (HIV-1)
# Experiment: cell-based or functional assay
Binder,IC50 (neutralization in TZM.bl cells),IC80 (neutralization in TZM.bl cells)
B1,0.015 µg/mL,0.053 µg/mL
B2,0.012 µg/mL,0.033 µg/mL
B3,0.014 µg/mL,0.053 µg/mL
B4,0.018 µg/mL,0.067 µg/mL
B5,0.033 µg/mL,0.173 µg/mL
B6,0.013 µg/mL,0.037 µg/mL
B7,0.011 µg/mL,0.033 µg/mL
B8,0.007 µg/mL,0.05 µg/mL
B9,0.006 µg/mL,0.03 µg/mL
B10,0.011 µg/mL,0.043 µg/mL
B11,0.009 µg/mL,0.05 µg/mL
B12,0.065 µg/mL,0.361 µg/mL
B13,0.111 µg/mL,0.99 µg/mL
B14,> 25 µg/mL,> 25 µg/mL

# Target: HIV-1 pseudovirus Ce1176_A3 (HIV-1)
# Experiment: cell-based or functional assay
Binder,IC50 (neutralization in TZM.bl cells),IC80 (neutralization in TZM.bl cells)
B1,0.082 µg/mL,1.63 µg/mL
B2,0.067 µg/mL,1.12 µg/mL
B3,0.047 µg/mL,0.837 µg/mL
B4,0.473 µg/mL,9.05 µg/mL
B5,1.11 µg/mL,> 25 µg/mL
B6,0.044 µg/mL,0.646 µg/mL
B7,0.023 µg/mL,0.635 µg/mL
B8,0.029 µg/mL,0.405 µg/mL
B9,0.018 µg/mL,0.567 µg/mL
B10,0.073 µg/mL,1.72 µg/mL
B11,0.366 µg/mL,4.25 µg/mL
B12,0.907 µg/mL,25 µg/mL
B13,2.76 µg/mL,> 25 µg/mL
B14,0.298 µg/mL,9.21 µg/mL
